“And” between values parts separate entries of the source, which are not always exact repeats. Identical values can stand only once.
T1: TP-51 peptide (human)
T1 construct: Synthetic peptide from Pepscan; also called synthetic TDP-43 peptide (TP-51)
T1 peptide: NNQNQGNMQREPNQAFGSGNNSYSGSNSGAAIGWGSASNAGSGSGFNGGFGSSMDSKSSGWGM


What was measured:
soluble TDP-43 = target: T2, soluble TDP-43 (human, UniProt Q13148 1-414); experiment: SPR Biacore 8K, soluble TDP-43 immobilized on CM5, mAb injected, single-cycle kinetics
T2 construct: also called soluble full-length TDP-43; FL TDP-43
T2 sequence (Q13148 whole entry): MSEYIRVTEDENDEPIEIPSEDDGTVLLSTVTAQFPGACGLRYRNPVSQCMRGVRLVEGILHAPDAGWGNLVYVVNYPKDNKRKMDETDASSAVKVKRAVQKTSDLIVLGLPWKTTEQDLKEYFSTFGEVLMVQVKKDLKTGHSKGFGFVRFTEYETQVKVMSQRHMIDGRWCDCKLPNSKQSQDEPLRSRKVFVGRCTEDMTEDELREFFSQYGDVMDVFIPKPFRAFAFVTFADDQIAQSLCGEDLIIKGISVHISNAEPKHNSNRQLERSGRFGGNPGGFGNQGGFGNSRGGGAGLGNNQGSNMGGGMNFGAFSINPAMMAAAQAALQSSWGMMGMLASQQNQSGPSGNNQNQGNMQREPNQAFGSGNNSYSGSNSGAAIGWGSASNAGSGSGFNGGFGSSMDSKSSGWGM
Protocol: The instrument was primed with running buffer PBS-P+ and flow cells (Fc) 1 and 2 of channels 1-8 were activated with a fresh solution of EDC/NHS (Amine Coupling Kit, 1:1 ratio of both reagents, GE Healthcare Life Sciences, BR-1006-33) at 10 μL/min for 420 sec. Soluble TDP-43 (Selvita) was diluted in sodium acetate pH 4.5 to a final concentration of 5 μg/mL and injected for 900 sec with a flow rate of 5 μL/min on Fc 2. All flow cells were quenched with 1 M ethanol amine (GE Healthcare Life Sciences, BR-1006-33), at 10 μL/min for 420 sec. Immobilization levels after ethanolamine quenching were 680 RU on all eight channels. Prior to analysis, two Startup cycles were run. Increasing mAbs concentrations were injected in single-cycle kinetics ranging from 1.2 to 100 nM, prepared from a 3-fold serial dilution in running buffer, with a contact time of 300 sec and a dissociation time of 3600 sec at a flow rate of 30 μL/min. Each cycle was followed by one regeneration using 10 mM Glycine-HCl pH 1.7 with a contact time of 30 sec at 30 μL/min, followed by a stabilization period of 300 sec. Results obtained from single-cycle kinetics were double-referenced using the blank Fc 1 and buffer cycles and evaluated using Biacore 8K evaluation software using the 1:1 kinetic fit model with RI and global Rmax. The following kinetic parameters were obtained: association rate constant (ka), dissociation rate constant (kd), affinity constant (KD) and saturation response (Rmax).

TP-51 peptide = target: T1, TP-51 peptide; experiment: SPR Biacore 8K, mAb captured by anti-human antibody, TP-51 injected, single-cycle kinetics
Protocol: The instrument was primed with running buffer PBS-P+. Fc 1-2 of channels 1-8 (8K) were activated with a fresh solution of EDC/NHS (Amine Coupling Kit, 1:1 ratio of both reagents, GE Healthcare Life Sciences, BR-1006-33) at 10 μL/min for 420 sec and goat anti-human antibody (GE Healthcare Life Sciences, 29234600) was immobilized at 25 μg/mL in 10 mM sodium acetate pH 5 for 420 sec. Next, all Fc were quenched with 1 M ethanol amine (GE Healthcare Life Sciences, BR-1006-33), for 420 sec. Any non-covalently bound antibodies were removed by two regenerations with 10 mM Glycine-HCl pH 1.7 for 30 sec. Immobilization levels were evaluated following ethanolamine quenching (10000 RU for all channels).
Each cycle started with non-covalent capture of humanized variants which were diluted in running buffer to a final concentration of 2 μg/mL and injected for 60 sec with a flow rate of 10 μL/min. TDP-43 mAbs were captured on channels 1-8, leaving Fc 1 as a blank Fc. Capture levels were evaluated following a 120 sec stabilization period after each mAb injection and ranged from 300-500 RU.
TP-51 consists of amino acids 352-414 of TDP-43 (SEQ ID NO: 1). Injections of TP-51 peptide (Pepscan) were performed in single-cycle kinetics with increasing concentrations ranging from 1.2-100 nM prepared from serial 3-fold dilutions. Injections were performed with contact times of 300 sec/injection at a flow rate of 25 μL/min. A dissociation phase of 3600 sec followed the final injection. Sensor surface was regenerated by one injection of 10 mM Glycine-HCl pH 1.7 at a flow rate of 10 μL/min for 120 sec, followed by a stabilization period of 300 sec. Results obtained from single-cycle kinetics were double-referenced using the blank Fc 1 and buffer cycles and evaluated by Biacore 8K evaluation software with 1:1 kinetic fit model with RI and global Rmax. The following kinetic parameters were obtained: association rate constant (ka), dissociation rate constant (kd), affinity constant (KD) and saturation response (Rmax).

[1] = target: T3, human TDP-43 in CSF of a healthy donor (human, UniProt Q13148 1-414, limits assumed); experiment: SIMOA-based target engagement assay, unbound TDP-43 in human CSF pre-incubated with increasing antibody
T3 construct: also called TDP-43 in human CSF

Row | Binder | Kd (soluble TDP-43) | koff (soluble TDP-43) | kon (soluble TDP-43) | Kd (TP-51 peptide) | koff (TP-51 peptide) | kon (TP-51 peptide) | EC50 [1]
1 | hACI-7069-633B12-Ab1_H33L24 (antibody, V domains shown) VH: EVQLVQSGAEVKKPGATVKISCKVSGFTFTEYSMHWVQQAPGKGLEWMGGINPNNGGTSYNQKFQGRVTITADTSTDTAYMELSSLRSEDTAVYYCARESWGQGTTVTVSS VL: DIVMTQSPLSLPVTPGEPASISCKSSQSLLHSDGKTYLNWLLQKPGQSPQRLIYLVSKLDSRVPDRFSGSGSGTDFTLKISRVEAEDVGVYYCWQGTHFPHTFGQGTKLEIK | 0.471 nM | 1.3e-05 s⁻¹ | 30000 M⁻¹ s⁻¹ | 2.2 nM | 0.00015 s⁻¹ | 70000 M⁻¹ s⁻¹ | 
2 | hACI-7069-633B12-Ab1_H33L26 (antibody, V domains shown) VH: EVQLVQSGAEVKKPGATVKISCKVSGFTFTEYSMHWVQQAPGKGLEWMGGINPNNGGTSYNQKFQGRVTITADTSTDTAYMELSSLRSEDTAVYYCARESWGQGTTVTVSS VL: DIVMTQSPLSLPVTPGEPASISCKSSQSLLHSDAKTYLNWLLQKPGQSPQRLIYLVSKLDSRVPDRFSGSGSGTDFTLKISRVEAEDVGVYYCFQGTHFPHTFGQGTKLEIK | 0.22 nM | 9e-06 s⁻¹ | 43000 M⁻¹ s⁻¹ | 1.6 nM | 0.00029 s⁻¹ | 160000 M⁻¹ s⁻¹ | 
3 | hACI-7069-633B12-Ab1_H28L24 (antibody, V domains shown) VH: EVQLVQSGAEVKKPGATVKISCKVSGFTFTEYSMHWVQQAPGKGLEWMGGINPNNGGTSYNQKFKGRVTITADTSTDTAYMELSSLRSEDTAVYYCARESWGQGTTVTVSS VL: DIVMTQSPLSLPVTPGEPASISCKSSQSLLHSDGKTYLNWLLQKPGQSPQRLIYLVSKLDSRVPDRFSGSGSGTDFTLKISRVEAEDVGVYYCWQGTHFPHTFGQGTKLEIK | 0.531 nM | 1.7e-05 s⁻¹ | 37000 M⁻¹ s⁻¹ | 2 nM | 0.00013 s⁻¹ | 66000 M⁻¹ s⁻¹ | 
4 | hACI-7069-633B12-Ab1_H32L26 (antibody, V domains shown) VH: EVQLVQSGAEVKKPGATVKISCKVSGFTFTEYSMHWVQQAPGKGLEWMGGINPQNAGTSYNQKFQGRVTITADTSTDTAYMELSSLRSEDTAVYYCARESWGQGTTVTVSS VL: DIVMTQSPLSLPVTPGEPASISCKSSQSLLHSDAKTYLNWLLQKPGQSPQRLIYLVSKLDSRVPDRFSGSGSGTDFTLKISRVEAEDVGVYYCFQGTHFPHTFGQGTKLEIK | 0.563 nM | 1.7e-05 s⁻¹ | 33000 M⁻¹ s⁻¹ | 1.4 nM | 0.00016 s⁻¹ | 120000 M⁻¹ s⁻¹ | 
5 | hACI-7069-633B12-Ab1_H28L22 (antibody, V domains shown) VH: EVQLVQSGAEVKKPGATVKISCKVSGFTFTEYSMHWVQQAPGKGLEWMGGINPNNGGTSYNQKFKGRVTITADTSTDTAYMELSSLRSEDTAVYYCARESWGQGTTVTVSS VL: DIVMTQSPLSLPVTPGEPASISCKSSQSLLHSDGKTYLNWLLQKPGQSPKRLIYLVSKLDSRVPDRFSGSGSGTDFTLKISRVEAEDVGVYYCWQGTHFPHTFGQGTKLEIK | 1.16 nM | 3.4e-05 s⁻¹ | 29000 M⁻¹ s⁻¹ | 3.5 nM | 0.0002 s⁻¹ | 58000 M⁻¹ s⁻¹ | 
6 | hACI-7069-633B12-Ab1_H33L27 (antibody, V domains shown) VH: EVQLVQSGAEVKKPGATVKISCKVSGFTFTEYSMHWVQQAPGKGLEWMGGINPNNGGTSYNQKFQGRVTITADTSTDTAYMELSSLRSEDTAVYYCARESWGQGTTVTVSS VL: DIVMTQSPLSLPVTPGEPASISCKSSQSLLHSDGKTYLNWLLQKPGQSPQRLIYLVSKLDSRVPDRFSGSGSGTDFTLKISRVEAEDVGVYYCFQGTHFPHTFGQGTKLEIK | 0.126 nM | 6.5e-06 s⁻¹ | 52000 M⁻¹ s⁻¹ | 0.8 nM | 0.00012 s⁻¹ | 150000 M⁻¹ s⁻¹ | 0.0356 µg/mL and 0.237 nM
7 | hACI-7069-633B12-Ab1_H32L27 (antibody, V domains shown) VH: EVQLVQSGAEVKKPGATVKISCKVSGFTFTEYSMHWVQQAPGKGLEWMGGINPQNAGTSYNQKFQGRVTITADTSTDTAYMELSSLRSEDTAVYYCARESWGQGTTVTVSS VL: DIVMTQSPLSLPVTPGEPASISCKSSQSLLHSDGKTYLNWLLQKPGQSPQRLIYLVSKLDSRVPDRFSGSGSGTDFTLKISRVEAEDVGVYYCFQGTHFPHTFGQGTKLEIK | 0.143 nM | 5.2e-06 s⁻¹ | 36000 M⁻¹ s⁻¹ | 1 nM | 0.00012 s⁻¹ | 120000 M⁻¹ s⁻¹ | 
8 | hACI-7069-633B12-Ab1_H32L24 (antibody, V domains shown) VH: EVQLVQSGAEVKKPGATVKISCKVSGFTFTEYSMHWVQQAPGKGLEWMGGINPQNAGTSYNQKFQGRVTITADTSTDTAYMELSSLRSEDTAVYYCARESWGQGTTVTVSS VL: DIVMTQSPLSLPVTPGEPASISCKSSQSLLHSDGKTYLNWLLQKPGQSPQRLIYLVSKLDSRVPDRFSGSGSGTDFTLKISRVEAEDVGVYYCWQGTHFPHTFGQGTKLEIK | 0.716 nM | 1.5e-05 s⁻¹ | 24000 M⁻¹ s⁻¹ | 2 nM | 0.00012 s⁻¹ | 64000 M⁻¹ s⁻¹ | 
9 | hACI-7069-633B12-Ab1_H28L23 (antibody, V domains shown) VH: EVQLVQSGAEVKKPGATVKISCKVSGFTFTEYSMHWVQQAPGKGLEWMGGINPNNGGTSYNQKFKGRVTITADTSTDTAYMELSSLRSEDTAVYYCARESWGQGTTVTVSS VL: DVVMTQSPLSLPVTPGEPASISCKSSQSLLHSDGKTYLNWLLQKPGQSPQRLIYLVSKLDSRVPDRFSGSGSGTDFTLKISRVEAEDVGVYYCWQGTHFPHTFGQGTKLEIK | 0.806 nM | 2.6e-05 s⁻¹ | 32000 M⁻¹ s⁻¹ | 1.9 nM | 0.00013 s⁻¹ | 65000 M⁻¹ s⁻¹ | 
10 | hACI-7069-633B12-Ab1_H27L23 (antibody, V domains shown) VH: EVQLVQSGAEVKKPGATVKISCKVSGFTFTEYSMHWVQQAPGKGLEWMGGINPNNGGTSYNQKFKGRVTITVDTSTDTAYMELSSLRSEDTAVYYCARESWGQGTTVTVSS VL: DVVMTQSPLSLPVTPGEPASISCKSSQSLLHSDGKTYLNWLLQKPGQSPQRLIYLVSKLDSRVPDRFSGSGSGTDFTLKISRVEAEDVGVYYCWQGTHFPHTFGQGTKLEIK | 0.925 nM | 2.2e-05 s⁻¹ | 24000 M⁻¹ s⁻¹ | 3.3 nM | 0.00014 s⁻¹ | 42000 M⁻¹ s⁻¹ | 
11 | ACI-7069-633B12-Ab1 (antibody, V domains shown, also called murine parental antibody) VH: EVQLQQSGPELVKPGASVKISCKTSGFTFTEYSMHWVKQSHGKSLEWIGGINPNNGGTSYNQKFKGKATLTVDKSSSTAYMELRSLTSEDSAVYYCARESWGQGTTLTVSS VL: not shown | 0.328 nM | 1.7e-05 s⁻¹ | 55000 M⁻¹ s⁻¹ | 1.5 nM | 9.8e-05 s⁻¹ | 67000 M⁻¹ s⁻¹ | 

Reference: patent US20250145695A1 (AC IMMUNE, published 2025)
